Results reported in article PMC9313427, “Identification and Characterization of an RRM-Containing, RNA Binding Protein in Acinetobacter baumannii”.

Assays:
Settings in all cases: protein: recombinant; tags: C-terminal 6xHis; label: 5'-biotin; single strand
rAB-Elavl [1] = molecular target: T1, rAB-Elavl (Acinetobacter baumannii, UniProt D0CAL6 1-86); assay: AlphaScreen saturation (probe length series); EC50 not converged; legend: minimal length for binding is 19 nt; AlphaScreen: 25 mM HEPES pH 7.4, 100 mM NaCl, 0.1% BSA, RT; REMSA: 20 mM HEPES pH 7.5, 50 mM KCl, 450 uM BSA, 0.25% glycerol, RT (gel at 4 C); NMR: 20 mM HEPES
T1 sequence: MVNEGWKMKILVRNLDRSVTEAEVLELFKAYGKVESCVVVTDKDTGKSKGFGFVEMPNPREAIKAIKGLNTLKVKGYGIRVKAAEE

rAB-Elavl [2] = molecular target: T1, rAB-Elavl; assay: HTRF-FRET saturation; EC50; AlphaScreen: 25 mM HEPES pH 7.4, 100 mM NaCl, 0.1% BSA, RT; REMSA: 20 mM HEPES pH 7.5, 50 mM KCl, 450 uM BSA, 0.25% glycerol, RT (gel at 4 C); NMR: 20 mM HEPES
rAB-Elavl [3] = molecular target: T1, rAB-Elavl; assay: AlphaScreen saturation (probe length series); EC50; unit implied; named ARE pos 29 nt in text; AlphaScreen: 25 mM HEPES pH 7.4, 100 mM NaCl, 0.1% BSA, RT; REMSA: 20 mM HEPES pH 7.5, 50 mM KCl, 450 uM BSA, 0.25% glycerol, RT (gel at 4 C); NMR: 20 mM HEPES
rAB-Elavl [4] = molecular target: T1, rAB-Elavl; assay: AlphaScreen saturation; EC50, probe titrated, 500 nM protein; conflicts with 35.62 nM in Fig 8C; AlphaScreen: 25 mM HEPES pH 7.4, 100 mM NaCl, 0.1% BSA, RT; REMSA: 20 mM HEPES pH 7.5, 50 mM KCl, 450 uM BSA, 0.25% glycerol, RT (gel at 4 C); NMR: 20 mM HEPES
rAB-Elavl [5] = molecular target: T1, rAB-Elavl; assay: AlphaScreen time-course kinetics (koff/kon); koff 0.02687 min-1; kon printed as 2.035 M-1 min-1 (exponent apparently lost); AlphaScreen: 25 mM HEPES pH 7.4, 100 mM NaCl, 0.1% BSA, RT; REMSA: 20 mM HEPES pH 7.5, 50 mM KCl, 450 uM BSA, 0.25% glycerol, RT (gel at 4 C); NMR: 20 mM HEPES
rAB-Elavl [6] = molecular target: T1, rAB-Elavl; assay: AlphaScreen saturation (probe length series); EC50; unit implied; AlphaScreen: 25 mM HEPES pH 7.4, 100 mM NaCl, 0.1% BSA, RT; REMSA: 20 mM HEPES pH 7.5, 50 mM KCl, 450 uM BSA, 0.25% glycerol, RT (gel at 4 C); NMR: 20 mM HEPES
rAB-Elavl [7] = molecular target: T1, rAB-Elavl; assay: AlphaScreen saturation; EC50, probe titrated, 500 nM protein; AlphaScreen: 25 mM HEPES pH 7.4, 100 mM NaCl, 0.1% BSA, RT; REMSA: 20 mM HEPES pH 7.5, 50 mM KCl, 450 uM BSA, 0.25% glycerol, RT (gel at 4 C); NMR: 20 mM HEPES
rAB-Elavl [8] = molecular target: T1, rAB-Elavl; assay: HTRF-FRET saturation; EC50; unit implied; legend: not well bound; AlphaScreen: 25 mM HEPES pH 7.4, 100 mM NaCl, 0.1% BSA, RT; REMSA: 20 mM HEPES pH 7.5, 50 mM KCl, 450 uM BSA, 0.25% glycerol, RT (gel at 4 C); NMR: 20 mM HEPES

B1: ARE pos 11 (ssRNA)
RNA: AUUAUUUAUUA
binding result (rAB-Elavl [1]): no binding

B2: ARE pos (ssRNA)
RNA: AUUAUUUAUUAUUUAUUUAUUAUUUA
apparent K (half saturation) (rAB-Elavl [2]): 35.1 nM
apparent K (half saturation) (rAB-Elavl [3]): 35.6 nM
apparent K (half saturation) (rAB-Elavl [4]): 0.5 nM
Kd (rAB-Elavl [5]): 13.2 nM

B3: ARE pos 19 (ssRNA)
RNA: AUUAUUUAUUAUUUAUUUA
apparent K (half saturation) (rAB-Elavl [6]): 64.8 nM

B4: ARE neg (ssRNA)
RNA: ACCACCCACCACCCACCCACCACCCA
apparent K (half saturation) (rAB-Elavl [7]): 257 nM
apparent K (half saturation) (rAB-Elavl [8]): 946 nM
